From US20110239319, “Use of Endonucleases for Inserting Transgenes Into Safe Harbor Loci” (published 2011)

Legend:
Assay in all cases: cell_activity; endogenous locus, 293H
SCOH-SH18-b11-C.2 = target: T1, SCOH-SH18-b11-C.2 (artificial)
T1 chain: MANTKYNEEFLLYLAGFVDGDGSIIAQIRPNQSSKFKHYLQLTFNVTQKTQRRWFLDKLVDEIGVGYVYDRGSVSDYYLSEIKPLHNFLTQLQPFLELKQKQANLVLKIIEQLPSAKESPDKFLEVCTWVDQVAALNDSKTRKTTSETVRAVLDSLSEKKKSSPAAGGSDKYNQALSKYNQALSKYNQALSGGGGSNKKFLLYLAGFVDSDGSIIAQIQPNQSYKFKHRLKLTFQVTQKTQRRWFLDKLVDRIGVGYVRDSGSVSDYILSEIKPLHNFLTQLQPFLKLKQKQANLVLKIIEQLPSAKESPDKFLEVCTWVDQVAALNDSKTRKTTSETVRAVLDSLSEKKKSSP
Procedure: (§1) Human embryonic kidney 293H cells (Invitrogen) were plated at a density of 1×10⁶ cells per 10 cm dish in complete medium (DMEM supplemented with 2 mM L-glutamine, penicillin (100 UI/ml), streptomycin (100 μg/ml), amphotericin B (Fongizone) (0.25 μg/ml) (Invitrogen-Life Science) and 10% FBS). The next day, cells were transfected with 3 μg of single-chain meganuclease expression vector using Lipofectamine 2000 transfection reagent (Invitrogen) according to the supplier's protocol. After 2 to 6 days of incubation at 37° C., cells were trypsinized and genomic DNA extraction was performed with the DNeasy blood and tissue kit (Qiagen) according to the supplier's protocol.
(§2) Human embryonic kidney 293H cells were transfected with a plasmid expressing a single-chain safe harbor meganuclease. After 2 to 6 days of incubation at 37° C., genomic DNA was isolated and PCR was used to amplify the genomic sequence surrounding the meganuclease target site. Sequences were then analyzed for the presence of insertions or deletions events (InDel) in the cleavage site of each safe harbor target.

SCOH-SH6-b12-G2_BQY = target: T2, SCOH-SH6-b12-G2_BQY (artificial)
T2 chain: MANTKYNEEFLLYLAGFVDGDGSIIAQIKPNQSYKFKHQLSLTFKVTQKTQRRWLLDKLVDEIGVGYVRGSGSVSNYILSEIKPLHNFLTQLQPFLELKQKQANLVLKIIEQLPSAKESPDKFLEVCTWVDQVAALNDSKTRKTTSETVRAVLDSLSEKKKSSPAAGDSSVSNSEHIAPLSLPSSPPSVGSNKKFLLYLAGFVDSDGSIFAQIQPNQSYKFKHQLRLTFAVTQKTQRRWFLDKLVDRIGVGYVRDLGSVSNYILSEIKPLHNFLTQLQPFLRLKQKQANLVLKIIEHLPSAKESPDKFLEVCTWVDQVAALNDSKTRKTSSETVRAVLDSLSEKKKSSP
Procedure: as §1, §2

[1] = target: T3, QCSH61-H01a (SCOH-QCSH6-H01) (artificial)
T3 chain: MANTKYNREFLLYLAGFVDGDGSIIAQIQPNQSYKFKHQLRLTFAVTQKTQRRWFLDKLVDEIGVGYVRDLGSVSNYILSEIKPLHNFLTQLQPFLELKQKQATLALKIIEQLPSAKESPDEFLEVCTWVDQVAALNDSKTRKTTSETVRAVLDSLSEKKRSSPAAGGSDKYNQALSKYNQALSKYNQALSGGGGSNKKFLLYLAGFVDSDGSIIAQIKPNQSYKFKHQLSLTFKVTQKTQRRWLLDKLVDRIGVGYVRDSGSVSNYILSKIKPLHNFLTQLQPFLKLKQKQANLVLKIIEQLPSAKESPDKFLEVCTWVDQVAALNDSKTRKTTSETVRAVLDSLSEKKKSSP
Procedure: as §1, §2

[2] = target: T4, QCSH61-H01b (QC-SH6-H01_7E) (artificial)
T4 chain: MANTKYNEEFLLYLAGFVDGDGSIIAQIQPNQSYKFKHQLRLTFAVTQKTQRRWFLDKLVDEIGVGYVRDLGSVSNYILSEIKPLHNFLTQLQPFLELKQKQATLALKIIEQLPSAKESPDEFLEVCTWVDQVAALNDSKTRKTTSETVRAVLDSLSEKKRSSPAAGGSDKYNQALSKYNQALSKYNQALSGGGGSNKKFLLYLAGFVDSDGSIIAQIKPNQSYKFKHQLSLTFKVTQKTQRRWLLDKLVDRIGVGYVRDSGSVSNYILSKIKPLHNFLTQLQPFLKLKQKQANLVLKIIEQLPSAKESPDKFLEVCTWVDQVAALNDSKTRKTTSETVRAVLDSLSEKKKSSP
Procedure: as §1, §2

[3] = target: T5, QCSH61-H01d (QC-SH6-H01_V2_7E_70R75D) (artificial)
T5 chain: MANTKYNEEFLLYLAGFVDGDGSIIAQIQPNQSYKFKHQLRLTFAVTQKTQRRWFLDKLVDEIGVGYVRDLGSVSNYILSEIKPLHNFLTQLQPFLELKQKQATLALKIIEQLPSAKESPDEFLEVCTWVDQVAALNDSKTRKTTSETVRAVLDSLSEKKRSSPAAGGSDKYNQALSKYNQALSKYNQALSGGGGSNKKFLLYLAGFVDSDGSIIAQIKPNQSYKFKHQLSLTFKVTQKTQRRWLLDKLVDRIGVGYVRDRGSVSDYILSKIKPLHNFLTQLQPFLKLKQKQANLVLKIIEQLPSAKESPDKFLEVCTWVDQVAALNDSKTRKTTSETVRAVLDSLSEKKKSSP
Procedure: as §1, §2

SCOH-SH6-b11-G2.2_BQY = target: T6, SCOH-SH6-b11-G2.2_BQY (artificial)
T6 chain: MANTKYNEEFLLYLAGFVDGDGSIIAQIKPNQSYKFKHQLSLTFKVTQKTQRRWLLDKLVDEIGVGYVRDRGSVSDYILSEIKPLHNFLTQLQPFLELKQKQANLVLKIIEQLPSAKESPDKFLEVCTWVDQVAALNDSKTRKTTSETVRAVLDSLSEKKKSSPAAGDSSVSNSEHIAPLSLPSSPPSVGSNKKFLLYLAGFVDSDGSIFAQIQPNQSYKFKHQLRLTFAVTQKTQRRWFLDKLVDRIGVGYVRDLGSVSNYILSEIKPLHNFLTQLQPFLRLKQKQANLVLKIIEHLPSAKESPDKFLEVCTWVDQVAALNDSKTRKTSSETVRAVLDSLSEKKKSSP
Procedure: as §1, §2

SCOH-SH13 = target: T7, SCOH-SH13 (artificial)
T7 chain: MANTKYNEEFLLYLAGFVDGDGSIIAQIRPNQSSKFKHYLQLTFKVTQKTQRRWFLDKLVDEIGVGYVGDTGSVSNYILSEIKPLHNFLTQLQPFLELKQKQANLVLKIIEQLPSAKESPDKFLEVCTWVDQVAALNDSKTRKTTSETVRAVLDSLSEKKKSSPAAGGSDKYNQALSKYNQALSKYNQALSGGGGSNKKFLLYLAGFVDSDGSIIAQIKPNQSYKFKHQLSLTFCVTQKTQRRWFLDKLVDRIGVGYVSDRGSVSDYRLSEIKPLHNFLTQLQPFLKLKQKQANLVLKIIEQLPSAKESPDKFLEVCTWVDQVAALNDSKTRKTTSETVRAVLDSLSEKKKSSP
Procedure: as §1, §2

SCOH-SH8 = target: T8, SCOH-SH8 (artificial)
T8 chain: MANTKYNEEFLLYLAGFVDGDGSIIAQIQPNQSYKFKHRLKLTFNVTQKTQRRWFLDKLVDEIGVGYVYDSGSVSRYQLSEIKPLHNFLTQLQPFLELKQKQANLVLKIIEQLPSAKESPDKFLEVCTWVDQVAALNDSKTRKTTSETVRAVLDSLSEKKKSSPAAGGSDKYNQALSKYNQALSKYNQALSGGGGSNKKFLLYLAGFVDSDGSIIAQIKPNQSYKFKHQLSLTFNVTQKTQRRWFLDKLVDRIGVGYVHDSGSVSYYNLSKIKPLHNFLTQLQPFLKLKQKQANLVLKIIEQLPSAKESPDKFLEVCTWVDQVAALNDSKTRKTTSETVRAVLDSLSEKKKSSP
Procedure: as §1, §2

B1: SH18 target (dsDNA)
DNA 1: CTTACCCCACGTACCACAGACTGT
DNA 2: ACAGTCTGTGGTACGTGGGGTAAG
activity (SCOH-SH18-b11-C.2): 1.2 % InDels

B2: SH6 target (dsDNA)
DNA 1: TTAATACCCCGTACCTAATATTGC
DNA 2: GCAATATTAGGTACGGGGTATTAA
activity (SCOH-SH6-b12-G2_BQY): 1 % InDels | activity [1]: 0.6 % InDels | activity [2]: 1.5 % InDels | activity [3]: 3.5 % InDels | activity (SCOH-SH6-b11-G2.2_BQY): 3 % InDels

B3: SH13 target (dsDNA)
DNA 1: ATTACACTCTTTAAGTGATTTTAA
DNA 2: TTAAAATCACTTAAAGAGTGTAAT
activity (SCOH-SH13): 1.5 % InDels

B4: SH8 target (dsDNA)
DNA 1: ACAATCTGAGGTAAGTAATACTGA
DNA 2: TCAGTATTACTTACCTCAGATTGT
activity (SCOH-SH8): 0.5 % InDels
